This is an account of results in PMC3178552.

In assay [1] the target is vesicular stomatitis virus nucleoprotein lacking its 21 N-terminal residues (N[change]), MBP tag removed (vesicular stomatitis virus) (UniProt P03521). Kind of assay: crystal structure.
Assay [2] has the same target. Kind of assay: SEC-MALS.

In assay [1], “vesicular stomatitis virus nucleoprotein lacking its 21 N-terminal residues (N[change]), MBP tag removed (from UniProt P03521 22-422) (domain or fragment)” registered a stoichiometry N of 10.
As to “P60: the first 60 amino acids of VSV phosphoprotein P, a two-amino acid linker and a C-terminal His6-tag (from UniProt P03520 1-60) (peptide)”, in assay [2], the stoichiometry N is 1.
